Target: the molecule itself
Experiment: SEC-MALS; 50 µg of each sample, Superdex 200 increase 10/300, 30 mM HEPES pH 7.5, 300 mM NaCl, 5 % glycerol, 0.5 mM TCEP

B1: PARP15^FL WT, full-length long isoform 1 of human PARP15 (enzyme, UniProt Q460N3 1-678, looked up)
chain: MAAPGPLPAAALSPGAPTPRELMHGVAGVTSRAGRDREAGSVLPAGNRGARKASRRSSSRSMSRDNKFSKKDCLSIRNVVASIQTKEGLNLKLISGDVLYIWADVIVNSVPMNLQLGGGPLSRAFLQKAGPMLQKELDDRRRETEEKVGNIFMTSGCNLDCKAVLHAVAPYWNNGAETSWQIMANIIKKCLTTVEVLSFSSITFPMIGTGSLQFPKAVFAKLILSEVFEYSSSTRPITSPLQEVHFLVYTNDDEGCQAFLDEFTNWSRINPNKARIPMAGDTQGVVGTVSKPCFTAYEMKIGAITFQVATGDIATEQVDVIVNSTARTFNRKSGVSRAILEGAGQAVESECAVLAAQPHRDFIITPGGCLKCKIIIHVPGGKDVRKTVTSVLEECEQRKYTSVSLPAIGTGNAGKNPITVADNIIDAIVDFSSQHSTPSLKTVKVVIFQPELLNIFYDSMKKRDLSASLNFQSTFSMTTCNLPEHWTDMNHQLFCMVQLEPGQSEYNTIKDKFTRTCSSYAIEKIERIQNAFLWQSYQVKKRQMDIKNDHKNNERLLFHGTDADSVPYVNQHGFNRSCAGKNAVSYGKGTYFAVDASYSAKDTYSKPDSNGRKHMYVVRVLTGVFTKGRAGLVTPPPKNPHNPTDLFDSVTNNTRSPKLFVVFFDNQAYPEYLITFTA
modifications: weakly MARylated from expression in Sf21 insect cells
notes: PARP15, human, full-length canonical isoform 1 (the longer isoform, both macrodomains present); Cloned in pFastBac-His-MBP (#30116); tags cleaved with TEV protease; source: Sf21 insect cells (baculovirus), purified (Ni-NTA, amylose resin, TEV cleavage, SEC)
stoichiometry N: ~2

From paper doi:10.64898/2025.12.15.694324, “Dimerization of human PARP15 is required for NAD^+ binding and automodification” (bioRxiv, 2025)
